# Source: patent publication US7119077B1, “Multimeric forms of members of the steroid/thyroid superfamily of receptors with the ultraspiracle receptor” (The Salk Institute for Biological Studies, priority 1990, dated 2006)
# T1: Ecdysone receptor (EcR) (Drosophila melanogaster, UniProt P34021 P34021:1-878)
# T1 sequence: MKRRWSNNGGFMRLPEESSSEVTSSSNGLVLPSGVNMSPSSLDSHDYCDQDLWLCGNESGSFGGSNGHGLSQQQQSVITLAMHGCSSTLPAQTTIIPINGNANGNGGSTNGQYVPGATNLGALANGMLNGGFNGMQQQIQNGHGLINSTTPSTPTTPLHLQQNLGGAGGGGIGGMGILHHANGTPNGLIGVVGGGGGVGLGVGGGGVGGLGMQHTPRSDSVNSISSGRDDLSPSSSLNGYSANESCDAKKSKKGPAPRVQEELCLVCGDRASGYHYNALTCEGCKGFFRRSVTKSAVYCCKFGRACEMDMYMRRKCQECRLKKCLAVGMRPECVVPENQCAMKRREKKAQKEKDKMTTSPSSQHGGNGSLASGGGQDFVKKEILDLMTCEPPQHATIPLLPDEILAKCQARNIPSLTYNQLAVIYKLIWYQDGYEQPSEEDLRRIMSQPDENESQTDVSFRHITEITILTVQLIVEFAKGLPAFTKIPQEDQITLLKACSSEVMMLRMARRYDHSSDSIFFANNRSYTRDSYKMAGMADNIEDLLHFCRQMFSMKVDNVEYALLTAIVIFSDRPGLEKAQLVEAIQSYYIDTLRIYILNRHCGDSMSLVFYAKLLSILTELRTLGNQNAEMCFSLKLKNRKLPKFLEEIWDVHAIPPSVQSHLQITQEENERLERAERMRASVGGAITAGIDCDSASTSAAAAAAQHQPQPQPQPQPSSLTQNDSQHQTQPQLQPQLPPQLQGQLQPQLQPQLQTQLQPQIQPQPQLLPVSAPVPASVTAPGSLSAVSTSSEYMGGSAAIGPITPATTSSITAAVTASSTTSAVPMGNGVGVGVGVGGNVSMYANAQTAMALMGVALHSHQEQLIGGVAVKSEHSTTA
# T2: EcR/usp heterodimer (Drosophila melanogaster, UniProt P34021;P20153 P34021:1-878,P20153:1-508)
# T2 sequence 1: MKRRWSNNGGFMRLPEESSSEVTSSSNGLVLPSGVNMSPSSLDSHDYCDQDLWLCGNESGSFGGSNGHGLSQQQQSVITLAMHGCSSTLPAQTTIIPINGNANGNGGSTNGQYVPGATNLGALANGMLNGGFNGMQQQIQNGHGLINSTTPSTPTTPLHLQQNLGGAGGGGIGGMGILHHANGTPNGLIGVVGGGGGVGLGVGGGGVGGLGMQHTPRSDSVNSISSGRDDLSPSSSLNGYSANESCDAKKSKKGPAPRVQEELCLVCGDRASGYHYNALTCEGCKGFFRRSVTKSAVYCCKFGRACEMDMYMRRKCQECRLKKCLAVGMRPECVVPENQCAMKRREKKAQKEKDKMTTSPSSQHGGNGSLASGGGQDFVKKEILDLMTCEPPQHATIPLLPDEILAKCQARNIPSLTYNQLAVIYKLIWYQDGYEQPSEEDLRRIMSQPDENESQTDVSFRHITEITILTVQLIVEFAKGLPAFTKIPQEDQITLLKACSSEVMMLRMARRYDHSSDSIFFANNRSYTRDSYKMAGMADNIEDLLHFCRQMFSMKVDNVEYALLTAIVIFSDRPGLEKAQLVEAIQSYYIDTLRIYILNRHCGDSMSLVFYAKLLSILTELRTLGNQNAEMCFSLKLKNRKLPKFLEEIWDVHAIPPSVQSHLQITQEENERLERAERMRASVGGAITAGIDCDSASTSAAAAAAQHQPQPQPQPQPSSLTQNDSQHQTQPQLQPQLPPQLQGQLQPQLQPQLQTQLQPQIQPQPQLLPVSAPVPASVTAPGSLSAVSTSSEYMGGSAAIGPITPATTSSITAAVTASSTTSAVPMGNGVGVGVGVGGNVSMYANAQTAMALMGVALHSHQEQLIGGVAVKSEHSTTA
# T2 sequence 2: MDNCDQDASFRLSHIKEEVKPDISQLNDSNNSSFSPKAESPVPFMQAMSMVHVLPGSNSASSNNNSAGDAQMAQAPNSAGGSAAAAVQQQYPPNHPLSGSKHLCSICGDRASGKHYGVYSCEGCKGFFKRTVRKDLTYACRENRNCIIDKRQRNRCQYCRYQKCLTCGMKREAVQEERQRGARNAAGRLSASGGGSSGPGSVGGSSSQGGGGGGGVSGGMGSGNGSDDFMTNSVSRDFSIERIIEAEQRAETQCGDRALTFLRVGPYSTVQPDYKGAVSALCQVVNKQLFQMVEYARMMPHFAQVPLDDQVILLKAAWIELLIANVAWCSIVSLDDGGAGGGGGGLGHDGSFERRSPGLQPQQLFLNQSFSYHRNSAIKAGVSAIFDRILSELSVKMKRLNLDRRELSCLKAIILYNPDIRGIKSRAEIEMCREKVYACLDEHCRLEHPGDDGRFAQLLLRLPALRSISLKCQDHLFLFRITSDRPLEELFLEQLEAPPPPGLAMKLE
# T3: ultraspiracle (usp) (Drosophila melanogaster, UniProt P20153 SEQ:1-513)
# T3 sequence: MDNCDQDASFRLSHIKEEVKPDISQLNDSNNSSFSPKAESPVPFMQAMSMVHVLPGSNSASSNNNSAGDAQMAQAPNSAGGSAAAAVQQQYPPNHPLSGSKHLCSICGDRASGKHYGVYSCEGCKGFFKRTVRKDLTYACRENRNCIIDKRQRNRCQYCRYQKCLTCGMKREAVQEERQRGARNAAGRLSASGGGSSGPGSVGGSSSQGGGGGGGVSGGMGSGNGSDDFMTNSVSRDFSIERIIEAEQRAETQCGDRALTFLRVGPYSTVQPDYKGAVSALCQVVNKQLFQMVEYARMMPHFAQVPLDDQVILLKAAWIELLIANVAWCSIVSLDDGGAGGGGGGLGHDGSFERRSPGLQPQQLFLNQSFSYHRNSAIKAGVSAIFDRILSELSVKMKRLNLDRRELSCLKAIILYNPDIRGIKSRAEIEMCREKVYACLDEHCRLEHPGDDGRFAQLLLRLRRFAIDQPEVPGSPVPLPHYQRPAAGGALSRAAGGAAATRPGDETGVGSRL
# T4: usp/TRβ heterodimer (Drosophila melanogaster / Homo sapiens, UniProt P20153;P10828 P20153:1-508,P10828:1-461)
# T4 sequence 1: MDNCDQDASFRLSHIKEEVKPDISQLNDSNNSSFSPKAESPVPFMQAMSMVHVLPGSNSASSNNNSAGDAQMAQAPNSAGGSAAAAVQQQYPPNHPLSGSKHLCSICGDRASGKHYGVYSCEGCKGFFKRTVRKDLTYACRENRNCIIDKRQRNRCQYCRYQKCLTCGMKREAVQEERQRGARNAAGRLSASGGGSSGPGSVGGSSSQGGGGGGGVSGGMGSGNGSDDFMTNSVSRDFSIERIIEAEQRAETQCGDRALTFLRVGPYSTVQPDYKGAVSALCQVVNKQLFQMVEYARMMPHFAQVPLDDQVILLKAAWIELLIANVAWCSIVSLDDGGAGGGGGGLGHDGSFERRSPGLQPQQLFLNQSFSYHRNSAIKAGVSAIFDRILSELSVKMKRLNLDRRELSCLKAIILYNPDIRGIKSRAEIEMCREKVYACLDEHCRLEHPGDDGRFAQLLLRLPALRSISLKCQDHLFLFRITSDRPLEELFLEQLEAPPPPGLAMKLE
# T4 sequence 2: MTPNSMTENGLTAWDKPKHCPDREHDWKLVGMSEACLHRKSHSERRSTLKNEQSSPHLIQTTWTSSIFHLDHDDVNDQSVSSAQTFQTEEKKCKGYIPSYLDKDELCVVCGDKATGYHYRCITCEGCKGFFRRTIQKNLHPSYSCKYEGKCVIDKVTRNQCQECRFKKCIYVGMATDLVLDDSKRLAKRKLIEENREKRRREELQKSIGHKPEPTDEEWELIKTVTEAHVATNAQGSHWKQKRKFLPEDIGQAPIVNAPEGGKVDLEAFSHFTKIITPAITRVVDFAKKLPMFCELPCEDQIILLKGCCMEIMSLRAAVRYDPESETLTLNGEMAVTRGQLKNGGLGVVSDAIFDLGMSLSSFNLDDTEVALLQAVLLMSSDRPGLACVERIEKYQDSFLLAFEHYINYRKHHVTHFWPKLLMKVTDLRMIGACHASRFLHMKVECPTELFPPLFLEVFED
# Columns and labels:
# Ecdysone receptor (EcR) = biological target: T1, Ecdysone receptor (EcR); experiment: EMSA; EcR alone; details: label: 32P
# Procedure: (§1) For gel mobility shift assay, proteins were incubated with binding buffer, which contained 100 mM KCl, 7.5% glycerol, 20 mM HEPES pH 7.5, 2 mM DTT and 0.1% NP-40, on ice for 20 minutes in the presence of 2 μg of nonspecific competitor poly dI-dC and other oligo competitors. Then approximately 1 ng of ^32P-dCTP probe, which was labelled to specific activity about 1-5×10^8 cpm/μg by fill-in reaction with Klenow fragments, was added to the reaction and incubated at room temperature for 20 minutes. Antiserum or preimmune serum was added 10 minutes after the probe was added. The reaction was then loaded into 5% non-denaturing polyacrylamide gel in 0.5×TBE running buffer [1×TBE comprises 0.089 M Tris borate, 0.089 M boric acid and 0.002 M EDTA]. After electrophoresis, the gel was dried for autoradiography.
# (§2) The EcR and usp interaction was also tested under more defined conditions. In vitro translated EcR and usp were prepared and their interaction was assayed by gel mobility shift assays. […] To test whether usp can complement EcR DNA binding, as it does with mammalian receptors, both usp and EcR were co-incubated in the reaction. In the presence of both receptors, a novel high affinity DNA binding complex appeared. […] This complex is proposed to be a heterodimeric species, which is consistent with the observation of other usp heterodimers.
# EcR/usp heterodimer [1] = biological target: T2, EcR/usp heterodimer; experiment: EMSA; high affinity complex; usp antibody supershift; details: label: 32P
# Procedure: as §1, §2
# ultraspiracle (usp) = biological target: T3, ultraspiracle (usp); experiment: EMSA; usp alone; details: label: 32P
# Procedure: as §1, §2
# EcR/usp heterodimer [2] = biological target: T2, EcR/usp heterodimer; experiment: competition; competes as effectively as hsp27-EcRE
# EcR/usp heterodimer [3] = biological target: T2, EcR/usp heterodimer; experiment: competition; effective competitor of hsp27-EcRE binding
# EcR/usp heterodimer [4] = biological target: T2, EcR/usp heterodimer; experiment: competition; does not compete hsp27-EcRE binding
# usp/TRβ heterodimer = biological target: T4, usp/TRβ heterodimer; experiment: EMSA; usp dependent; usp antibody supershift; details: label: 32P
# Procedure: as §1
# Using in vitro translated usp protein, interaction of usp with three mammalian nuclear receptors (TRβ, VDR and PPAR) was tested in gel mobility shift assays with the appropriate response element for each of the three receptors as the probes.
binder,measurement,setting,value
hsp27-EcRE (dsDNA) DNA 1: ATTGGACAAGTGCATTGAACCCTTGTCTCT DNA 2: AGAGACAAGGGTTCAATGCACTTGTCCAAT,binding result,Ecdysone receptor (EcR),no binding
same,binding result,EcR/usp heterodimer [1],binds
same,binding result,ultraspiracle (usp),no binding
Eip28/29-EcRE (dsDNA) DNA 1: TAAAGGATCTTGACCCCAATGAACTTCTTA DNA 2: TAAGAAGTTCATTGGGGTCAAGATCCTTTA,binding result,EcR/usp heterodimer [2],binds
15N-EcRE (dsDNA) DNA 1: ATGAAGTGCATTGAACCCGCTCGA DNA 2: TCGAGCGGGTTCAATGCACTTCAT,binding result,EcR/usp heterodimer [3],binds
11N-EcRE (dsDNA) DNA 1: ATGCTGTGCATTGAACGTGCTCGA DNA 2: TCGAGCACGTTCAATGCACAGCAT,binding result,EcR/usp heterodimer [4],no binding
MLV-TRE (DR4) (dsDNA) DNA 1: GGGTCATTTCAGGTCC DNA 2: GGACCTGAAATGACCC,binding result,usp/TRβ heterodimer,binds
